Source: article PMC8325310
Several values for one entry are separate records, joined by “and”; a condition that tells them apart may be missing. Equal values may be shown once.

Key:
NT*-Bri2 BRICHOS (human) = test: SEC; IMAC-purified NT*-Bri2 BRICHOS concentrated to 3.4 mg/mL, Superdex 200 26/600, 20 mM NaPi pH 8.0 with 0.2 mM EDTA; four peaks resolved (monomer, dimer, tetramer, higher oligomers)
[1] = target: recombinant human (rh) Bri2 BRICHOS (human); test: SEC; Bri2 BRICHOS species after thrombin cleavage and reverse IMAC, Superdex 200 26/600 (oligomer, tetramer, dimer) or Superdex 75 26/600 (monomer), 20 mM NaPi pH 8.0 with 0.2 mM EDTA
[2] = target: recombinant human (rh) Bri2 BRICHOS (human); test: SDS-PAGE under reducing and non-reducing conditions; SEC-isolated rh Bri2 BRICHOS species analysed by SDS-PAGE, reducing and non-reducing

Chain of NT*-Bri2 BRICHOS (Q9Y287 132-236): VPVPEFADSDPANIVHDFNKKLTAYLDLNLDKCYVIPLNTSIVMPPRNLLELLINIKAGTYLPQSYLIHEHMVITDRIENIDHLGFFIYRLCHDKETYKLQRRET

| stoichiometry N (NT*-Bri2 BRICHOS (human)) | stoichiometry N [1] | stoichiometry N [2] | Substance |
| --- | --- | --- | --- |
| 2 and 4 | – | – | NT*-Bri2 BRICHOS (domain or fragment) |
| – | 2 and 4 | 6 | recombinant human (rh) Bri2 BRICHOS (domain or fragment) |
